# Article PMC6641210 (2019)
# Several values for one entry are separate records, joined by “and”; a condition that tells them apart may be missing. Equal entries are not always repeated. Where two headings read alike, the source gives them in different places.
# Columns and labels:
# [1] = target: ADCC-enhanced human IgG1 25G1 with S239D/I332E (human); assay: SPR; Biacore X100, 25°C, HBS-EP+ (0.01 M HEPES pH 7.4, 0.15 M NaCl, 3 mM EDTA, 0.05% P20); antibody (5.3 nM) captured by its kappa light chain on a Protein L Sensor Chip, FcγRIIIA ECD injected 30 s at 30 µl/min; five-point titration in triplicate; kinetic fit, 1:1 Langmuir binding model
# [2] = target: ADCC-enhanced human IgG1 25G1 with S239D/I332E (human); assay: SPR; Biacore X100, 25°C, HBS-EP+; antibody captured on a Protein L Sensor Chip, five-point titration of FcγRIIIA ECD in triplicate; steady-state affinity model
# [3] = target: chimeric rabbit IgG: variable regions of human 25G1 on rabbit IgG heavy and rabbit kappa (K2) light chain constant regions (human | rabbit (Oryctolagus cuniculus)); assay: SPR; Biacore X100, 25°C, HBS-EP+ (0.01 M HEPES pH 7.4, 0.15 M NaCl, 3 mM EDTA, 0.05% P20); antibody (5.3 nM) captured by its kappa light chain on a Protein L Sensor Chip, FcγRIIIA ECD injected 30 s at 30 µl/min; five-point titration in triplicate; kinetic fit, 1:1 Langmuir binding model
# [4] = target: chimeric rabbit IgG: variable regions of human 25G1 on rabbit IgG heavy and rabbit kappa (K2) light chain constant regions (human | rabbit (Oryctolagus cuniculus)); assay: SPR; Biacore X100, 25°C, HBS-EP+; antibody captured on a Protein L Sensor Chip, five-point titration of FcγRIIIA ECD in triplicate; steady-state affinity model
# [5] = target: rabbit chimera of human IgG1 25G1 (human 25G1 variable regions on rabbit IgG heavy chain and rabbit kappa K2 light chain constant regions) (rabbit (Oryctolagus cuniculus)); assay: SPR; antibody (5.3 nM) captured by its kappa light chain on a Protein L sensor chip, FcγRIIIA ECD injected as analyte; Biacore X100, 25°C, HBS-EP+ (0.01 M HEPES pH 7.4, 0.15 M NaCl, 3 mM EDTA, 0.05% P20); five-point titration in triplicate, 1:1 Langmuir binding model (kinetic)
# [6] = target: ADCC-enhanced human IgG1 25G1 with S239D/I332E (human); assay: SPR
# [7] = target: ADCC-enhanced human IgG1 25G1 with S239D/I332E (human); assay: SPR; remark: listed apart in the source
# [8] = target: pig chimera of human IgG1 25G1 (human 25G1 variable regions on pig IgG1 heavy chain and pig kappa light chain constant regions) (pig (Sus scrofa)); assay: SPR; antibody (5.3 nM) captured by its kappa light chain on a Protein L sensor chip, FcγRIIIA ECD injected as analyte; Biacore X100, 25°C, HBS-EP+ (0.01 M HEPES pH 7.4, 0.15 M NaCl, 3 mM EDTA, 0.05% P20); five-point titration in triplicate, 1:1 Langmuir binding model (kinetic)
# [9] = target: ADCC-enhanced human IgG1 (25G1) with the S239D/I332E mutations (human); assay: as above
# [10] = target: human IgG1 antibody with a kappa light chain (human anti-Tissue Factor antibody 25G1) (human); assay: as above
# [11] = target: human IgG1 anti-Tissue Factor antibody 25G1 with a kappa light chain (human); assay: SPR; Biacore X100, 25°C, HBS-EP+ (0.01 M HEPES pH 7.4, 0.15 M NaCl, 3 mM EDTA, 0.05% P20); antibody (5.3 nM) captured by its kappa light chain on a Protein L Sensor Chip, FcγRIIIA ECD injected 30 s at 30 µl/min; five-point titration in triplicate; kinetic fit, 1:1 Langmuir binding model
# [12] = target: chimeric pig IgG1: variable regions of human 25G1 on pig IgG1 heavy and pig kappa light chain constant regions (human | pig (Sus scrofa)); assay: as above
# [13] = target: human IgG1 anti-Tissue Factor antibody 25G1 with a kappa light chain (human); assay: SPR; Biacore X100, 25°C, HBS-EP+; antibody captured on a Protein L Sensor Chip, five-point titration of FcγRIIIA ECD in triplicate; steady-state affinity model
# [14] = target: chimeric pig IgG1: variable regions of human 25G1 on pig IgG1 heavy and pig kappa light chain constant regions (human | pig (Sus scrofa)); assay: as above
# [15] = target: T1, chimeric rabbit IgG: variable regions of human 25G1 on rabbit IgG heavy and rabbit kappa (K2) light chain constant regions (human | rabbit (Oryctolagus cuniculus)); assay: SPR; Biacore X100, 25°C, HBS-EP+ (0.01 M HEPES pH 7.4, 0.15 M NaCl, 3 mM EDTA, 0.05% P20); antibody (5.3 nM) captured by its kappa light chain on a Protein L Sensor Chip, FcγRIIIA ECD injected 30 s at 30 µl/min; five-point titration in triplicate; kinetic fit, 1:1 Langmuir binding model; remark: listed apart in the source
# [16] = target: T2, human IgG1 anti-Tissue Factor antibody 25G1 with a kappa light chain (human); assay: as above; remark: listed apart in the source
# [17] = target: T1, chimeric rabbit IgG: variable regions …; assay: SPR; Biacore X100, 25°C, HBS-EP+; antibody captured on a Protein L Sensor Chip, five-point titration of FcγRIIIA ECD in triplicate; steady-state affinity model; remark: listed apart in the source
# [18] = target: T2, human IgG1 anti-Tissue Factor antibody …; assay: as above; remark: listed apart in the source
# [19] = target: biotinylated rabbit IgG (Jackson 011-060-003) (rabbit); assay: SPR; biotinylated rabbit IgG immobilised on a streptavidin Sensor Chip SA, titration of rabbit FcγRIIIA as analyte; steady-state affinity analysis, average of a triplicate
# [20] = target: ADCC-enhanced human IgG1 (25G1) with the S239D/I332E mutations (human); assay: SPR; antibody (5.3 nM) captured by its kappa light chain on a Protein L sensor chip, FcγRIIIA ECD injected as analyte; Biacore X100, 25°C, HBS-EP+ (0.01 M HEPES pH 7.4, 0.15 M NaCl, 3 mM EDTA, 0.05% P20); five-point titration in triplicate, 1:1 Langmuir binding model (kinetic); remark: listed apart in the source
# [21] = target: rabbit chimera of human IgG1 25G1 (human 25G1 variable regions on rabbit IgG heavy chain and rabbit kappa K2 light chain constant regions) (rabbit (Oryctolagus cuniculus)); assay: as above; remark: listed apart in the source
# [22] = target: human IgG1 antibody with a kappa light chain (human anti-Tissue Factor antibody 25G1) (human); assay: as above; remark: listed apart in the source
# [23] = target: T3, rabbit FcγRIIIA extracellular domain fragment (rabbit (Oryctolagus cuniculus)); assay: SPR
# T3 chain: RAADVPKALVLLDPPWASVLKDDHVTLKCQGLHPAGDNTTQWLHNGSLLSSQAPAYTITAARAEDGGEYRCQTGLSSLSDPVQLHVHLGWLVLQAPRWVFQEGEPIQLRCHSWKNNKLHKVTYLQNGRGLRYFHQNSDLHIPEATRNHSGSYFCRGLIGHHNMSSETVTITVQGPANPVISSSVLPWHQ
# [24] = target: T4, pig FcγRIIIA extracellular domain fragment (pig, UniProt Q28942 20-209); assay: SPR
# T4 chain: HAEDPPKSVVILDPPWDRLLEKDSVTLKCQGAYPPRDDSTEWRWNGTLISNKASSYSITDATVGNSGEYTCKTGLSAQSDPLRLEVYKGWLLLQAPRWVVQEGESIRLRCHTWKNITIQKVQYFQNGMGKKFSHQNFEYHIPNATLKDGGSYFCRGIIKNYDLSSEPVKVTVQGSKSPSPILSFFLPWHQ
# human FcγRIIIA-F158 (low affinity allele) extracellular domain fragment (receptor), sequence (chain): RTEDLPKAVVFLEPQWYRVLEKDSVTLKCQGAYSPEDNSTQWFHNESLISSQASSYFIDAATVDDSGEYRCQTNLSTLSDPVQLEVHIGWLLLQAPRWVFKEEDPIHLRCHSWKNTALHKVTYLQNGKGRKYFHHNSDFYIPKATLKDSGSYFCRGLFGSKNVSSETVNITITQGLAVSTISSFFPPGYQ
# human FcγRIIIA extracellular domain fragment, low affinity F158 variant, sequence (P08637 17-208, change not shown): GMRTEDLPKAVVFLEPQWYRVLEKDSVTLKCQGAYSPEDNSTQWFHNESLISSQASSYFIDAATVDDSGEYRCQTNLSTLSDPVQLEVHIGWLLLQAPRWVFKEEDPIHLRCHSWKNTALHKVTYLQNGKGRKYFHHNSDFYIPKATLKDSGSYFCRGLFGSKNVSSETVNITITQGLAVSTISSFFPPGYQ
molecule,measurement,setting,value
rabbit FcγRIIIA extracellular domain fragment (receptor),Kd,[1],148 nM
same,koff,[1],0.27 s⁻¹
same,kon,[1],1.8e+06 M⁻¹ s⁻¹
same,Kd,[2],133 nM
human FcγRIIIA-F158 (low affinity allele) extracellular domain fragment (receptor),Kd,[3],773 nM
same,koff,[3],0.14 s⁻¹
same,kon,[3],186000 M⁻¹ s⁻¹
same,Kd,[1],4.6 nM
same,koff,[1],0.05 s⁻¹
same,kon,[1],1.16e+07 M⁻¹ s⁻¹
same,Kd,[4],792 nM
"human FcγRIIIA extracellular domain fragment, low affinity F158 variant (from UniProt P08637 17-208) (receptor)",difference of kinetic KD between hIgG1 and rIgG,[5],24%
human FcγRIIIA-V158 (high affinity allele) extracellular domain fragment (receptor),Kd,[6],1.18 nM
same,koff,[6],0.01 s⁻¹
same,kon,[6],1.01e+07 M⁻¹ s⁻¹
pig FcγRIIIA extracellular domain fragment (receptor) HAEDPPKSVVILDPPWDRLLEKDSVTLKCQGAYPPRDDSTEWRWNGTLISNKASSYSITDATVGNSGEYTCKTGLSAQSDPLRLEVYKGWLLLQAPRWVVQEGESIRLRCHTWKNITIQKVQYFQNGMGKKFSHQNFEYHIPNATLKDGGSYFCRGIIKNYDLSSEPVKVTVQGSKSPSPILSFFLPWHQ,Kd,[7],638 nM
same,Kd,[8],4730 nM
same,difference of kinetic KD between hIgG1 and rIgG,[5],30%
same,fold deterioration of kd relative to hIgG1,[9],7 fold
same,fold improvement of KD relative to hIgG1,[9],> 10 fold
same,fold reduction of affinity relative to hFcγRIIIA,[10],13 fold
same,Kd,[11],8060 nM
same,koff,[11],0.05 s⁻¹
same,kon,[11],5920 M⁻¹ s⁻¹
same,Kd,[3],10900 nM
same,koff,[3],0.08 s⁻¹
same,kon,[3],7110 M⁻¹ s⁻¹
same,Kd,[1],726 nM
same,koff,[1],0.35 s⁻¹
same,kon,[1],480000 M⁻¹ s⁻¹
same,koff,[12],0.28 s⁻¹
same,kon,[12],59700 M⁻¹ s⁻¹
same,Kd,[13],14700 nM
same,Kd,[4],13200 nM
same,Kd,[14],3970 nM
"rabbit FcγRIIIA extracellular domain fragment (receptor, modifications not checked) RAADVPKALVLLDPPWASVLKDDHVTLKCQGLHPAGDNTTQWLHNGSLLSSQAPAYTITAARAEDGGEYRCQTGLSSLSDPVQLHVHLGWLVLQAPRWVFQEGEPIQLRCHSWKNNKLHKVTYLQNGRGLRYFHQNSDLHIPEATRNHSGSYFCRGLIGHHNMSSETVTITVQGPANPVISSSVLPWHQ",koff,[15],0.34 s⁻¹
same,kon,[15],140000 M⁻¹ s⁻¹
same,Kd,[16],2710 nM
same,koff,[16],0.33 s⁻¹
same,kon,[16],122000 M⁻¹ s⁻¹
same,Kd,[17],1990 nM
same,Kd,[18],2170 nM
same,Kd,[19],1320 nM
same,fold improvement of KD relative to hIgG1,[20],> 10 fold
same,Kd,[21],2450 nM
same,difference of kinetic KD between hIgG1 and rIgG,[21],10%
same,fold reduction of affinity relative to hFcγRIIIA,[22],4 fold
human IgG1 antibody with a kappa light chain (human anti-Tissue Factor antibody 25G1) (antibody) chain 1: QVQLVQSGAEVKKPGASVKVSCKASGYTFRSYGISWVRQAPGQGLEWMGWVAPYSGNTNYAQKLQGRVTMTTDTSTSTAYMELRSLRSDDTAVYYCARDAGTYSPYGYGMDVWGQGTTVTVSS chain 2: DIQMTQSPSTLSASVGDRVTITCRASHSIDSWLAWYQQKPGKAPKLLIYKASYLESGVPSRFSGSGSGTEFTLTISSLQPDDFATYYCQLFQSLPPFTFGGGTKVEIK,Kd,[23],2170 nM and 2710 nM
same,Kd,[24],8060 nM and 14700 nM
